# Measurements taken from US20250283164.
# pKd: −log10 of the molar value.
# Tests used:
# [1] = system: GFP; test: FP; conditions: negative control, little affinity
# [2] = system: BamHI; test: FP; conditions: negative control, little affinity
substance,measurement,setting,value
random-sequence RNA,pKd,[1],< 5.40
same,pKd,[2],< 5.40
